Measurements published in article doi:10.1101/506113 (bioRxiv, 2018).

Target: LgB-NIX (NIX with Large BiT at its N-terminal end) (UniProt O60238 1-219)
Assay: split reporter

Sequence of LgB-NIX (NIX with Large BiT at its N-terminal end) (O60238 whole entry): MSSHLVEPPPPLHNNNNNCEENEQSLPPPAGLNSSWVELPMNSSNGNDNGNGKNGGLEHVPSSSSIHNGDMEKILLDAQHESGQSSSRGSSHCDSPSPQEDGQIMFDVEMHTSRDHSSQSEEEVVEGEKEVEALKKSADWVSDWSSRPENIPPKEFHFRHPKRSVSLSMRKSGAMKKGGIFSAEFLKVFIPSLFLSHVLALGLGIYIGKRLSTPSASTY

B1: vIRF-1-SmB (vIRF-1 with Small BiT at its C-terminal end) (natural protein)
chain: MDPGQRPNPFGAPGAIPKKPCLSQGSPGTSGSGAPCDEPSRSESPGEGPSGTGGSAAAGDITRQAVVAAITEWSRTRQLRISTGASEGKASIKDWIVCQVNSGKFPGVEWEDEERTRFRIPVTPLADPCFEWRRDGELGVVYIRERGNMPVDASFKGTRGRRRMLAALRRTRGLQEIGKGISQDGHHFLVFRVRKPEEEQCVECGVVAGAVHDFNNMARLLQEGFFSPGQCLPGEIVTPVPSCTTAEGQEAVIDWGRLFIRMYYNGEQVHELLTTSQSGCRISSALRRDPAVHYCAVGSPGQVWLPNVPNLACEIAKRELCDTLDACAKGILLTSSCNGIFCVCYHNGPVHFIGNTVPPDSGPLLLPQGKPTRIFNPNTFLVGLANSPLPAPSHVTCPLVKLWLGKPVAVGKLEPHAPSPRDFAARCSNFSDACVVLEIMPKPLWDAMQ
fold luminescence over HT-SmB with LgB-NIX: 10 fold
